Assay results reported in patent publication US20070167370A1 (UUTECH, published 2007).

Target: T1, human GIP receptor, stably transfected in Chinese hamster lung (CHL) fibroblast cells (human, UniProt P48546 22-466)
T1 sequence (looked up): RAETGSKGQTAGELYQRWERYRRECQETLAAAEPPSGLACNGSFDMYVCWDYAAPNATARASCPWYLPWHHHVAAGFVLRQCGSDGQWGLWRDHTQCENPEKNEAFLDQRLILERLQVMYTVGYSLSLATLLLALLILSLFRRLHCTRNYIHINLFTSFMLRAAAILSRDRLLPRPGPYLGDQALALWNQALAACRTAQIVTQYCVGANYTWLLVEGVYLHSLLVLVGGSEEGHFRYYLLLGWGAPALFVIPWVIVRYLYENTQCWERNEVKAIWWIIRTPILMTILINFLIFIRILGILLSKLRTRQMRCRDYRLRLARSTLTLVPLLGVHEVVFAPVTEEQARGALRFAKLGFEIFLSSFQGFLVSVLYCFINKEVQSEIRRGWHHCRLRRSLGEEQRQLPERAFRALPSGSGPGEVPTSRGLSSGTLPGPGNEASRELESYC
Test: cell-based or functional assay

## YAPGTFISDYSIAMDKIHQQDFVNWLLAQKGKKNDWKHNITQ [(Pro^3)GIP]
  IC50 of inhibition of GIP-induced cAMP formation (GIP receptor transfected CHL fibroblasts, native GIP 10^-7 M): 2.6 µM
